Results taken from patent US20160222085A1 (CHILDREN S HOSPITAL OF PHILADELPHIA, published 2016).

Assays:
[1] = molecular target: FV-810 (FV-DT), Factor V with amino acids 811-1491 deleted from the B-domain (human) (UniProt P12259); assay: fluorescence anisotropy, displacement; FXa S195A titrated into 30 nM OG488-BR, 20 nM FV-810, 50 uM PCPS, 25 C; displaced ligand: OG488-BR
[2] = molecular target: FV-810 (FV-DT), Factor V with amino acids 811-1491 deleted from the B-domain (human) (UniProt P12259); assay: fluorescence anisotropy displacement of OG488-BR; FXaS195A titrated into 30 nM OG488-BR, 20 nM FV-810, 50 uM PCPS
[3] = molecular target: FV-810 (FV-DT), Factor V with amino acids 811-1491 deleted from the B-domain (human) (UniProt P12259); assay: global fit of prethrombin-2 activation rates (1-50 nM FXa, 0-1000 nM BR, 5 nM FV-810, 50 uM PCPS) to a tight, competitive binding model
[4] = molecular target: T1, Oregon Green 488 maleimide-modified BR (OG488-BR) (human, Oregon Green 488 maleimide on the added N-terminal Cys); assay: fluorescence anisotropy; buffer-pretreated FV-810 QQ titrated into 30 nM OG488-BR with 50 uM PCPS
T1 construct: also called fluorescently labeled FVBR
T1 peptide: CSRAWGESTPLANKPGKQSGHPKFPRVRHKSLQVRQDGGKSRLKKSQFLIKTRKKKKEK
Experimental: (§1) FV-810, FV-810^R709Q (▴), FV-810^R1545Q (♦), and FV-810^QQ (▪) were pretreated with buffer (FIG. 14A) or thrombin (FIG. 14B).
(§2) Steady-state fluorescence anisotropy was measured at 25° C. in a PTI Quanta-Master™ fluorescence spectrophotometer (Photon Technology International, Birmingham, N.J.) using excitation and emission wavelengths of 480 and 520 nm, respectively, with long-pass filters (KV500, CVI Melles Griot) in the emission beam.

[5] = molecular target: T1, Oregon Green 488 maleimide-modified BR …; assay: fluorescence anisotropy; thrombin-pretreated, hirudin-quenched FV-810 QQ titrated into 30 nM OG488-BR with 50 uM PCPS
Experimental: as §1, §2

[6] = molecular target: T1, Oregon Green 488 maleimide-modified BR …; assay: fluorescence anisotropy; buffer-pretreated FV-810 R1545Q titrated into 30 nM OG488-BR with 50 uM PCPS
Experimental: as §1, §2

[7] = molecular target: T1, Oregon Green 488 maleimide-modified BR …; assay: fluorescence anisotropy; buffer-pretreated FV-810 R709Q titrated into 30 nM OG488-BR with 50 uM PCPS
Experimental: as §1, §2

[8] = molecular target: FV-810 (FV-DT), Factor V with amino acids 811-1491 deleted from the B-domain (human) (UniProt P12259); assay: fluorescence anisotropy displacement of OG488-BR; 30 nM OG488-BR, 20 nM FV-810, 50 uM PCPS; stoichiometry of 1 assumed
Target sequence in this assay (P12259 other isoform, or with tags, fused parts or gaps, form in doubt): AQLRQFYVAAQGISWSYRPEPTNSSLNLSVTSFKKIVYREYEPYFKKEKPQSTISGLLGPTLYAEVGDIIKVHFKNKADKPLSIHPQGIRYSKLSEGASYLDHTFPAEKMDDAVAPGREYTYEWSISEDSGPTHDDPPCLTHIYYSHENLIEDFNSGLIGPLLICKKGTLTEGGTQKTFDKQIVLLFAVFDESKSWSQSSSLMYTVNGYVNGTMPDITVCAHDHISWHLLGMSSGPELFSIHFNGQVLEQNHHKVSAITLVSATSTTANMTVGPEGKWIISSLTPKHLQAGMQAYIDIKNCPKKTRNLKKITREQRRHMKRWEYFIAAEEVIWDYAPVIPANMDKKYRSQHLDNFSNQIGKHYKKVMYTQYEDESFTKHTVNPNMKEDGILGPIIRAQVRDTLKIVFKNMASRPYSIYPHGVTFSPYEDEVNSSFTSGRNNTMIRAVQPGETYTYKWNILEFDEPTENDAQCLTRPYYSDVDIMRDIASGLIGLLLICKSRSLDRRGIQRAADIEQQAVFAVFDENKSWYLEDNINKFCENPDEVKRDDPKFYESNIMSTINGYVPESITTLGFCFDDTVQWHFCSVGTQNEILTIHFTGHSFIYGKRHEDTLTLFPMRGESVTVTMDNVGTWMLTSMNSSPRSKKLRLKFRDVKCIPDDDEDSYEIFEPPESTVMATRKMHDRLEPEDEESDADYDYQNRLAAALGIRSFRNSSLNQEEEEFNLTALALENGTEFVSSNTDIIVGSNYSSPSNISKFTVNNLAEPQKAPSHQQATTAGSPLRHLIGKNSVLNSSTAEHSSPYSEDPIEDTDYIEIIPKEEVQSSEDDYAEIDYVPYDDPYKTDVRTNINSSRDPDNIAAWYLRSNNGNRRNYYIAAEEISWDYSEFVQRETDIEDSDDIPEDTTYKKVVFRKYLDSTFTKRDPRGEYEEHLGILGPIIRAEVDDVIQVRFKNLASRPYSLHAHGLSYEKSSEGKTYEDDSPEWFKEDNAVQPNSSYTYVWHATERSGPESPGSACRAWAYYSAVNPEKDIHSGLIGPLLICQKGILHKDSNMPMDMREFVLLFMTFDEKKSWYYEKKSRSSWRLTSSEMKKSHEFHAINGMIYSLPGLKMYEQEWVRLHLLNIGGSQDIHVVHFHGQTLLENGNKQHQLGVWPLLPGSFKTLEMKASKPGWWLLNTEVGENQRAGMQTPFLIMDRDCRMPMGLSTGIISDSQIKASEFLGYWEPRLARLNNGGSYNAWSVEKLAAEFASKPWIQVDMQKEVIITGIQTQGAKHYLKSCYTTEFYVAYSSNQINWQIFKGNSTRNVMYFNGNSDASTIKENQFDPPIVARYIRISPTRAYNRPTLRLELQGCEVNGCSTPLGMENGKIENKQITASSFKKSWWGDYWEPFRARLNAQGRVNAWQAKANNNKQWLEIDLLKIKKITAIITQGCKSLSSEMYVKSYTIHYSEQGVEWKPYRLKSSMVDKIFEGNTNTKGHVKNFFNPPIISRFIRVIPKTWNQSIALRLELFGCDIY

[9] = molecular target: FV-810 (FV-DT), Factor V with amino acids 811-1491 deleted from the B-domain (human) (UniProt P12259); assay: fluorescence anisotropy displacement of OG488-BR
[10] = molecular target: FV-810 (FV-DT), Factor V with amino acids 811-1491 deleted from the B-domain (human) (UniProt P12259); assay: fluorescence anisotropy, displacement; bovine BR titrated into 30 nM OG488-BR, 20 nM FV-810, 50 uM PCPS, 25 C; competitor: OG488-BR

**Q.** Which IC50 (read off the curve) [1] does the source give for “catalytically inactive FXa^S195A (from UniProt P00742 41-179; P00742 235-488) (enzyme)” here?
**A.** 40 nM

**Q.** What about the n (stoichiometry) (mol of FXa/mol of FV-810) [2] of the same molecule?
**A.** 1.1

**Q.** With “Factor Xa (FXa) (from UniProt P00742 41-179; P00742 235-488) (enzyme)” as the molecule, how does the Kd [3] read?
**A.** 2 nM

B1: FV-810^QQ (other, human, UniProt P12259 29-838, looked up)
chain: AQLRQFYVAAQGISWSYRPEPTNSSLNLSVTSFKKIVYREYEPYFKKEKPQSTISGLLGPTLYAEVGDIIKVHFKNKADKPLSIHPQGIRYSKLSEGASYLDHTFPAEKMDDAVAPGREYTYEWSISEDSGPTHDDPPCLTHIYYSHENLIEDFNSGLIGPLLICKKGTLTEGGTQKTFDKQIVLLFAVFDESKSWSQSSSLMYTVNGYVNGTMPDITVCAHDHISWHLLGMSSGPELFSIHFNGQVLEQNHHKVSAITLVSATSTTANMTVGPEGKWIISSLTPKHLQAGMQAYIDIKNCPKKTRNLKKITREQRRHMKRWEYFIAAEEVIWDYAPVIPANMDKKYRSQHLDNFSNQIGKHYKKVMYTQYEDESFTKHTVNPNMKEDGILGPIIRAQVRDTLKIVFKNMASRPYSIYPHGVTFSPYEDEVNSSFTSGRNNTMIRAVQPGETYTYKWNILEFDEPTENDAQCLTRPYYSDVDIMRDIASGLIGLLLICKSRSLDRRGIQRAADIEQQAVFAVFDENKSWYLEDNINKFCENPDEVKRDDPKFYESNIMSTINGYVPESITTLGFCFDDTVQWHFCSVGTQNEILTIHFTGHSFIYGKRHEDTLTLFPMRGESVTVTMDNVGTWMLTSMNSSPRSKKLRLKFRDVKCIPDDDEDSYEIFEPPESTVMATRKMHDRLEPEDEESDADYDYQNRLAAALGIQSFRNSSLNQEEEEFNLTALALENGTEFVSSNTDIIVGSNYSSPSNISKFTVNNLAEPQKAPSHQQATTAGSPLRHLIGKNSVLNSSTAEHSSPYSEDPIEDTDYIEIIPKEEVQSSEDDYAEIDYVPYDDPYKTDVRTNINSSRDPDNIAAWYLQSNNGNRRNYYIAAEEISWDYSEFVQRETDIEDSDDIPEDTTYKKVVFRKYLDSTFTKRDPRGEYEEHLGILGPIIRAEVDDVIQVRFKNLASRPYSLHAHGLSYEKSSEGKTYEDDSPEWFKEDNAVQPNSSYTYVWHATERSGPESPGSACRAWAYYSAVNPEKDIHSGLIGPLLICQKGILHKDSNMPMDMREFVLLFMTFDEKKSWYYEKKSRSSWRLTSSEMKKSHEFHAINGMIYSLPGLKMYEQEWVRLHLLNIGGSQDIHVVHFHGQTLLENGNKQHQLGVWPLLPGSFKTLEMKASKPGWWLLNTEVGENQRAGMQTPFLIMDRDCRMPMGLSTGIISDSQIKASEFLGYWEPRLARLNNGGSYNAWSVEKLAAEFASKPWIQVDMQKEVIITGIQTQGAKHYLKSCYTTEFYVAYSSNQINWQIFKGNSTRNVMYFNGNSDASTIKENQFDPPIVARYIRISPTRAYNRPTLRLELQGCEVNGCSTPLGMENGKIENKQITASSFKKSWWGDYWEPFRARLNAQGRVNAWQAKANNNKQWLEIDLLKIKKITAIITQGCKSLSSEMYVKSYTIHYSEQGVEWKPYRLKSSMVDKIFEGNTNTKGHVKNFFNPPIISRFIRVIPKTWNQSIALRLELFGCDIY
notes: range 1-810;range 1492-2196; Both thrombin sites (Arg709 and Arg1545) changed to Gln; The same molecule is used for the thrombin-pretreated sample, since both cleavage sites are removed; the assay field says where thrombin pretreatment was used
**Q.** Which “EC50 (read off the curve)” value [4] does the source give for B1 here?
**A.** ~9 nM

**Q.** And the “EC50 (read off the curve)” value [5]?
**A.** 10 to 15 nM

B2: FV-810^R1545Q (other, human, UniProt P12259 29-838, looked up)
chain: AQLRQFYVAAQGISWSYRPEPTNSSLNLSVTSFKKIVYREYEPYFKKEKPQSTISGLLGPTLYAEVGDIIKVHFKNKADKPLSIHPQGIRYSKLSEGASYLDHTFPAEKMDDAVAPGREYTYEWSISEDSGPTHDDPPCLTHIYYSHENLIEDFNSGLIGPLLICKKGTLTEGGTQKTFDKQIVLLFAVFDESKSWSQSSSLMYTVNGYVNGTMPDITVCAHDHISWHLLGMSSGPELFSIHFNGQVLEQNHHKVSAITLVSATSTTANMTVGPEGKWIISSLTPKHLQAGMQAYIDIKNCPKKTRNLKKITREQRRHMKRWEYFIAAEEVIWDYAPVIPANMDKKYRSQHLDNFSNQIGKHYKKVMYTQYEDESFTKHTVNPNMKEDGILGPIIRAQVRDTLKIVFKNMASRPYSIYPHGVTFSPYEDEVNSSFTSGRNNTMIRAVQPGETYTYKWNILEFDEPTENDAQCLTRPYYSDVDIMRDIASGLIGLLLICKSRSLDRRGIQRAADIEQQAVFAVFDENKSWYLEDNINKFCENPDEVKRDDPKFYESNIMSTINGYVPESITTLGFCFDDTVQWHFCSVGTQNEILTIHFTGHSFIYGKRHEDTLTLFPMRGESVTVTMDNVGTWMLTSMNSSPRSKKLRLKFRDVKCIPDDDEDSYEIFEPPESTVMATRKMHDRLEPEDEESDADYDYQNRLAAALGIRSFRNSSLNQEEEEFNLTALALENGTEFVSSNTDIIVGSNYSSPSNISKFTVNNLAEPQKAPSHQQATTAGSPLRHLIGKNSVLNSSTAEHSSPYSEDPIEDTDYIEIIPKEEVQSSEDDYAEIDYVPYDDPYKTDVRTNINSSRDPDNIAAWYLQSNNGNRRNYYIAAEEISWDYSEFVQRETDIEDSDDIPEDTTYKKVVFRKYLDSTFTKRDPRGEYEEHLGILGPIIRAEVDDVIQVRFKNLASRPYSLHAHGLSYEKSSEGKTYEDDSPEWFKEDNAVQPNSSYTYVWHATERSGPESPGSACRAWAYYSAVNPEKDIHSGLIGPLLICQKGILHKDSNMPMDMREFVLLFMTFDEKKSWYYEKKSRSSWRLTSSEMKKSHEFHAINGMIYSLPGLKMYEQEWVRLHLLNIGGSQDIHVVHFHGQTLLENGNKQHQLGVWPLLPGSFKTLEMKASKPGWWLLNTEVGENQRAGMQTPFLIMDRDCRMPMGLSTGIISDSQIKASEFLGYWEPRLARLNNGGSYNAWSVEKLAAEFASKPWIQVDMQKEVIITGIQTQGAKHYLKSCYTTEFYVAYSSNQINWQIFKGNSTRNVMYFNGNSDASTIKENQFDPPIVARYIRISPTRAYNRPTLRLELQGCEVNGCSTPLGMENGKIENKQITASSFKKSWWGDYWEPFRARLNAQGRVNAWQAKANNNKQWLEIDLLKIKKITAIITQGCKSLSSEMYVKSYTIHYSEQGVEWKPYRLKSSMVDKIFEGNTNTKGHVKNFFNPPIISRFIRVIPKTWNQSIALRLELFGCDIY
notes: range 1-810;range 1492-2196; mature numbering
**Q.** How did the “EC50 (read off the curve)” value [6] turn out when B2 was run?
**A.** 10 to 15 nM

B3: FV-810^R709Q (other, human, UniProt P12259 29-838, looked up)
chain: AQLRQFYVAAQGISWSYRPEPTNSSLNLSVTSFKKIVYREYEPYFKKEKPQSTISGLLGPTLYAEVGDIIKVHFKNKADKPLSIHPQGIRYSKLSEGASYLDHTFPAEKMDDAVAPGREYTYEWSISEDSGPTHDDPPCLTHIYYSHENLIEDFNSGLIGPLLICKKGTLTEGGTQKTFDKQIVLLFAVFDESKSWSQSSSLMYTVNGYVNGTMPDITVCAHDHISWHLLGMSSGPELFSIHFNGQVLEQNHHKVSAITLVSATSTTANMTVGPEGKWIISSLTPKHLQAGMQAYIDIKNCPKKTRNLKKITREQRRHMKRWEYFIAAEEVIWDYAPVIPANMDKKYRSQHLDNFSNQIGKHYKKVMYTQYEDESFTKHTVNPNMKEDGILGPIIRAQVRDTLKIVFKNMASRPYSIYPHGVTFSPYEDEVNSSFTSGRNNTMIRAVQPGETYTYKWNILEFDEPTENDAQCLTRPYYSDVDIMRDIASGLIGLLLICKSRSLDRRGIQRAADIEQQAVFAVFDENKSWYLEDNINKFCENPDEVKRDDPKFYESNIMSTINGYVPESITTLGFCFDDTVQWHFCSVGTQNEILTIHFTGHSFIYGKRHEDTLTLFPMRGESVTVTMDNVGTWMLTSMNSSPRSKKLRLKFRDVKCIPDDDEDSYEIFEPPESTVMATRKMHDRLEPEDEESDADYDYQNRLAAALGIQSFRNSSLNQEEEEFNLTALALENGTEFVSSNTDIIVGSNYSSPSNISKFTVNNLAEPQKAPSHQQATTAGSPLRHLIGKNSVLNSSTAEHSSPYSEDPIEDTDYIEIIPKEEVQSSEDDYAEIDYVPYDDPYKTDVRTNINSSRDPDNIAAWYLRSNNGNRRNYYIAAEEISWDYSEFVQRETDIEDSDDIPEDTTYKKVVFRKYLDSTFTKRDPRGEYEEHLGILGPIIRAEVDDVIQVRFKNLASRPYSLHAHGLSYEKSSEGKTYEDDSPEWFKEDNAVQPNSSYTYVWHATERSGPESPGSACRAWAYYSAVNPEKDIHSGLIGPLLICQKGILHKDSNMPMDMREFVLLFMTFDEKKSWYYEKKSRSSWRLTSSEMKKSHEFHAINGMIYSLPGLKMYEQEWVRLHLLNIGGSQDIHVVHFHGQTLLENGNKQHQLGVWPLLPGSFKTLEMKASKPGWWLLNTEVGENQRAGMQTPFLIMDRDCRMPMGLSTGIISDSQIKASEFLGYWEPRLARLNNGGSYNAWSVEKLAAEFASKPWIQVDMQKEVIITGIQTQGAKHYLKSCYTTEFYVAYSSNQINWQIFKGNSTRNVMYFNGNSDASTIKENQFDPPIVARYIRISPTRAYNRPTLRLELQGCEVNGCSTPLGMENGKIENKQITASSFKKSWWGDYWEPFRARLNAQGRVNAWQAKANNNKQWLEIDLLKIKKITAIITQGCKSLSSEMYVKSYTIHYSEQGVEWKPYRLKSSMVDKIFEGNTNTKGHVKNFFNPPIISRFIRVIPKTWNQSIALRLELFGCDIY
notes: as for B2
**Q.** B3 was tested. Which “EC50 (read off the curve)” value [7] did it give?
**A.** 15 to 20 nM

B4: Bovine BR (Bos taurus Ser938-Lys996) (peptide, UniProt Q28107 966-1024, looked up)
peptide: SRTWGENIPFKNSHGKQSGHPTFLVTRRKPLQDRQDRRNSRLKEGLPLIRTRRKKKEEK
**Q.** How did the Kd [8] turn out when B4 was run?
**A.** 28.3 nM

**Q.** And the fold weaker binding than the human BR [9]?
**A.** 10 fold

**Q.** What about the IC50 (read off the curve) [10] of the same molecule?
**A.** 300 to 400 nM
